In data set [1] the target is T1, RecG (WT) (Escherichia coli, UniProt P24230).
T1 construct: RecG was expressed in STL2669/pT7pol26 (a gift from Dr Susan Lovett, Brandeis University) with overexpression plasmid pEAW111; made in house; host or cells: E. coli STL2669/pT7pol26
Briefly: Fluorescence anisotropy binding of 6-FAM-labelled SSB peptides to wildtype RecG. Set-up: species or system E. coli. The method, then: SSB peptides (sequences listed in Figure 2) were designed with an N-terminal tryptophan residue for quantification and N-terminal 6-FAM label (Genscript). RecG was incubated with 0.2 M potassium glutamate, 1 mM DTT, 0.1 μg/ml BSA, 1 × RecA buffer (25 mM Tris-acetate, pH 7.6, 5% w/v glycerol, 3 mM potassium glutamate, 10 mM magnesium acetate, 1 mM DTT), and 10 nM labeled peptide at room temperature for 30 min. Fluorescence polarization (FP) values were measured at 25°C using a Beacon 2000 Fluorescence Polarization System. Polarization values were normalized to the FP value measured at 0 nM RecG. Normalized FP was converted to normalized anisotropy. Experiments were performed in triplicate, and the data were fit to a one site binding model (, where X is ligand concentration, Y is normalized anisotropy, Bmax is the maximum anisotropy, and KD is the dissociation constant) using GraphPad Prism Software.
Figure 2. RecG binds directly and specifically to the SSB-Ct. (A) Fluorescence anisotropy binding isotherms for RecG binding to SSB-Ct (black), SSB113 (violet), SSBΔF (blue), or SSB IDL (green) peptides. Peptide sequences are listed in parentheses with * representing an N-terminal 6-FAM label. Anisotropy values are normalized to the reading at 0 μM RecG. […] (B–E) ITC analysis of RecG/SSB binding. Thermograms (top) and binding isotherms (bottom) of titrations of (B) full-length SSB, (C) SSB-Ct peptide, (D) SSBΔF or (E) SSBΔF peptide into RecG solutions.
Two models explaining how RecG interacts with SSB have been proposed - RecG could interact with the SSB-Ct ([29]) or RecG could interact with the IDL ([48],[49]). To begin testing each model, we used an equilibrium fluorescence anisotropy assay to measure RecG binding to fluorescently labeled SSB-Ct or IDL peptides (Figure 2). Titration of RecG with the SSB-Ct peptide led to an increase in fluorescence anisotropy, which occurs when protein binding slows the tumbling rate of a labeled peptide ([90]). […] KD values in the low micromolar range are typical for SSB/SIP complexes ([10],[12–14],[19],[23]). […]

Data set [2] concerns E. coli ssb mutant strains (ssbΔ151–166, ssbΔ139–164, ssbΔ130–166). Kind of data set: DNA damage sensitivity spot plate assay of ssb IDL deletion strains. In kind it is cell-based. As to conditions: ssbΔ151–166, ssbΔ139–164 and ssbΔ130–166 versus MG1655; LB plates, 37°C overnight.
Description: MG1655, recG, and ssb IDL mutant strains were tested for sensitivity to UV light, ciprofloxacin, or mitomycin C. A ΔrecA strain (EAW20) was used as a sensitive control in the ssb IDL experiments. Overnight cultures set in biological triplicate were used to inoculate fresh LB. Cells were grown at 37°C with shaking to an OD600 nm of 0.2 and serially diluted 10-fold in 1 × PBS. Ten μl of each dilution was spotted onto square LB agar plates (for UV) or LB plates containing DNA damaging agents (ciprofloxacin or mitomycin C) poured fresh and kept in the dark. UV sensitivity plates were exposed to shortwave light (254 nm) using a Spectrolinker XL-1000 UV crosslinker (Spectronics Corp) and incubated at 37°C overnight in the dark. Plates were imaged on an iBright Imaging System. […] Briefly, dilutions of each strain were plated onto an LB plate exposed to 0, 50 or 100 J/m^2. Plates were incubated under foil at 37°C overnight, and colonies were counted to obtain colony forming units (CFU)/ml and percent relative survival values. […]
(A) Spot plate assay showing growth of 10-fold serially diluted MG1655 (wildtype ssb), ΔrecA, ssbΔ151–166, ssbΔ139–164, ssbΔ130–166, and ssbΔ120–166 strains exposed to varying UV (top), ciprofloxacin (center), or mitomycin C (bottom) doses. (B) Quantification of strain UV percent survival relative to CFU/ml of the strain at no UV exposure.
The subject of data set [3] is SSB-interacting proteins (SIPs). As to conditions: cited from earlier work. An excerpt:
Most SSB-interacting proteins (SIPs) studied to date appear to share a conserved mode of SSB recognition in which they dock onto the SSB-Ct. Several SIPs have been co-crystalized with SSB-Ct peptides and their SSB-binding pockets have been validated in biochemical and/or genetic studies ([10],[12],[19],[20],[35]). SSB-Ct binding pockets have also been successfully predicted through computational methods ([36–39]). […] However, structural data ([31],[36],[108]) and predictions ([80]) reveal that the IDL is unstructured, and the length of IDLs across bacterial species varies greatly ([41]). […] Similarly, SSB fluorescent fusion proteins where GFP ...

Data set [4] addresses ΦX174 RF I DNA. Briefly: DNA-dependent ATP hydrolysis assay (coupled spectrophotometric) of RecG proteins. The data set is classed as biochemical. As to conditions: 150 nM RecG, 3 mM ATP, 37°C, pH 7.6, triplicate. The method, then:
ATPase rates for wildtype and variant RecG proteins were determined using a coupled spectrophotometric assay ([86]). ATP hydrolysis reactions were conducted with 150 nM RecG in 1 × RecA buffer, supplemented with 1 mM DTT, 2.2 mM phosphor(enol)pyruvate, 10 units/ml pyruvate kinase, 10 units/ml lactate dehydrogenase, 2 mM NADH, and 3 mM ATP with varying concentrations of ΦX174 RF I (New England Biolabs) DNA at 37°C. DNA concentrations are represented in μM nucleotides (nt). A380 nm measured the conversion of NADH into NAD^+. Measurements were taken every 20–40 s on a Cary UV-Vis spectrophotometer. ATP hydrolysis rates were calculated by dividing the slope of A380 nm measurements over time over the linear region by ε380 nm = 1.21 mM^−1 cm^−1 for NADH and the cell path length (1 cm).
To more rigorously and quantitatively test the RecG HD2/SSB-Ct binding model, a RecG variant in which one of the putative SSB-binding residues is altered (RecG R474E) was purified and tested for binding to the SSB-Ct peptide and to full-length SSB in vitro. This variant was chosen because of the predicted interaction of the R474 side chain with the alpha-carboxyl group of SSB-Ct C-terminal Phe (Figure 3A). Analogous interactions have proven to be essential points of contact in other SIPs ([10],[19]). […] ATPase activity of RecG R474E was indistinguishable from that of wildtype RecG, with values for both maximal ATPase rates and the DNA concentrations required for 50% stimulation (KDNA) within error between the two proteins (Figure 4B and Table 2). Thus, we concluded that the RecG R474E variant was properly folded. To further examine the effect of the R474E sequence change, we also used ITC to measure RecG R474E binding to either the SSB-Ct or to full-length SSB. Binding was not detected in either titration (Figure 4C).
Figure 4.
We first measured binding to the SSB-Ct. […] RecG R95A binding to the SSB-Ct was expected since our experiments had shown that the peptide bound at a site in the RecG HD2 domain. […] This difference could be due to compromised DNA binding in the R95A variant. Arg95 is located on the DNA binding surface of the RecG wedge domain ([74]), and changing adjacent residues Phe96 or Phe97 to Ala results in drastic reductions in DNA binding and unwinding activity ([91]).

Data set [5] has as its system SSB. As to conditions: S. cerevisiae pJ69-4a; Gal4 BD-RecG (variant) with Gal4 AD-SSB; SD His- and Ade-deficient plates, 30°C, 4–5 days.
Description: SSB, RecG or RecG variants were N-terminally fused to the DNA binding domain (pGBD) or activation domain (pGAD) of the Gal4 transcription factor. Resulting plasmids (Supplementary Table S3) were transformed ([84]) in pairs into Saccharomyces cerevisiae strain pJ69-4a ([85]) and selected for on synthetic dextrose (SD) Leu- and Trp-deficient plates. Transformants were inoculated into SD Leu- and Trp-deficient liquid medium and grown at 30°C overnight rotating. Saturated overnight cultures were diluted to an OD600 nm of 1.0 in 2% glucose and serially diluted 10-fold in 2% glucose. Dilutions were spotted (10 μl) onto SD His- and Ade-deficient plates and grown at 30°C for 4–5 days. Plates were imaged on a Fotodyne gel doc. Site-directed mutagenesis of RecG in pGBD was performed by in vivo assembly mutagenesis ([78]) of pEAW1156.
A fourth charge-reversal variant of R484 was also tested as a control to determine whether an electrostatic change that is near, but not in, the putative SSB binding site would alter RecG binding to SSB. A yeast two-hybrid assay was used as an initial method to screen several RecG variants for interaction with SSB. In the two-hybrid assay, yeast were transformed with plasmids encoding SSB and RecG fused to the Gal4 activation and binding domains, respectively, and the RecG/SSB interaction was assessed by selecting for growth on selective medium plates. […]
Data set [6] relates to SSB. As to conditions: cited from earlier work. An excerpt:
In contra ... || To directly test whether the proposed RecG wedge domain IDL binding site is important for interaction with SSB, we purified a RecG R95A variant and measured its activity in vitro. […] We first measured binding to the SSB-Ct.

Data set [7] concerns the target T2, RecG DNA helicase, wildtype (E. coli, UniProt P24230 1-693).
T2 construct: RecG DNA helicase, E. coli, expressed from overexpression plasmid pEAW111; No tag is mentioned; also called WT RecG; source: E. coli STL2669/pT7pol26 with pEAW111, purified (ammonium sulfate, DEAE, Source 15Q, Source 15S)
T2 sequence (looked up): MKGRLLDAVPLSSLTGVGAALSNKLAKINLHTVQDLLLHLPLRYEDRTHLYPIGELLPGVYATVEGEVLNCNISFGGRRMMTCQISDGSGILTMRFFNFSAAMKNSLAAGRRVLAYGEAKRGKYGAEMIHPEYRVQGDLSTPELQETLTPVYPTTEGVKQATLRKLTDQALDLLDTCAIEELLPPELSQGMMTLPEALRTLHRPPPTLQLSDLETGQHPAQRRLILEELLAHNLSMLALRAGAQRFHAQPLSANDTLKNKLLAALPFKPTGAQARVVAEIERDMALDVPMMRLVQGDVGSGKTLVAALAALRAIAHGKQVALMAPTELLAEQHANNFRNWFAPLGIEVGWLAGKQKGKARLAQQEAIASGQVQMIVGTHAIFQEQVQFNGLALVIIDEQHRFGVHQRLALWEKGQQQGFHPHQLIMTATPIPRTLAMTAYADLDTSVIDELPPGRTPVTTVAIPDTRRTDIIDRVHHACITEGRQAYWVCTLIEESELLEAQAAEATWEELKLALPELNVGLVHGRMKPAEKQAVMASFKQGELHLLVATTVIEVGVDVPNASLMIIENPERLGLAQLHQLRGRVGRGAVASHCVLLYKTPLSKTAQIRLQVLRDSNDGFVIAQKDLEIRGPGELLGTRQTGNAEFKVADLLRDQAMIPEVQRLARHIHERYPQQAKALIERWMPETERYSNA
Briefly: ITC; SSB proteins or unlabeled peptides injected into RecG in the cell; 20 mM Tris-HCl pH 8.0, 150 mM NaCl, 10% glycerol, 1 mM EDTA, 1 mM β-mercaptoethanol; 25°C; one-site model; concentrations as monomers. As to conditions: both partners purified. On the technique in general: ITC needs no label: the signal is the heat of the interaction.

Substitutions are numbered along the chain they refer to. Numbers in names are those of the source. Where two headings read alike, the source gives them in different places. Where a SMILES comes first, the peptide text is derived from it. Where no end group is shown, it is not given here. The star is where a group is joined. 6FAM = O=C1OC2(c3ccc(O)cc3Oc3cc(O)ccc32)c2cc(C(=O)*)ccc21 Where only a bound is given, the exact number is not on record here.

The molecule `CC[C@H](C)[C@H](NC(=O)[C@H](CC(=O)O)NC(=O)[C@H](CC(=O)O)NC(=O)[C@H](CC(=O)O)NC(=O)[C@H](Cc1ccccc1)NC(=O)[C@H](CC(=O)O)NC(=O)[C@H](CCSC)NC(=O)[C@H](Cc1c[nH]c2ccccc12)NC(=O)c1ccc2c(c1)C1(OC2=O)c2ccc(O)cc2Oc2cc(O)ccc21)C(=O)N[C@@H](CO)C(=O)N[C@@H](Cc1ccccc1)C(=O)O` [SSB113 peptide] (6FAM-WMDFDDDISF-OH) registered a Kd in data set [1] of 23 ± 3.1 µM.

Take `CO[C@@]12[C@H](COC(N)=O)C3=C(C(=O)C(C)=C(N)C3=O)N1C[C@@H]1N[C@@H]12` [mitomycin C]: the “DNA damage sensitivity of ssb IDL deletion strains, in words” value in data set [2] is recorded as “no change in DNA damage sensitivity compared to MG1655”.

As for “SSB113 protein: SSB with a Ser for the penultimate Pro of the SSB-Ct (ssb-113 mutation)”, the “affinity for SIPs, in words” value in data set [3] (SSB113) is “greatly reduced affinity for SIPs”.

Regarding “SSBΔF: SSB protein variant lacking the C-terminal-most Phe residue”, the “interaction with SIPs, in words (SSB-Ct deletions)” value in data set [3] (in vitro) is “eliminates interactions between SSB and SIPs in vitro”.

Consider H-WMDFDDDIP [SSBΔF peptide], for which, in data set [1] (read-out: FP K D, WT RecG, fluorescence anisotropy, 10 nM N-terminal 6-FAM peptide, 0.2 M potassium glutamate, 25 mM Tris-acetate pH 7.6, 10 mM magnesium acetate, 30 min at room temperature, read at 25°C, one site fit, triplicate), the Kd is greater than 30 µM.

B1: RecG R474E: RecG Arg474Glu charge-reversal variant, HD2 domain (protein)
chain: T2 sequence (looked up) with R474E
modifications: left off: Gal4 DNA-binding domain, N-terminal, kept
Take B1: in data set [4], the “K DNA (DNA concentration required for 50% stimulation of ATPase)” value came to 39.9 ± 2.9 μM nt and the “V max of ATP hydrolysis” value was found to be 363 ± 13 µM/min. For the same molecule, the “yeast two-hybrid growth on selective medium” value in data set [5] is reported as “failed to grow”.

B2: RecG R95A: RecG wedge domain variant (protein)
chain: T2 sequence (looked up) with R95A
modifications: left off: Gal4 DNA-binding domain, N-terminal, kept
notes: RecG wedge domain variant
Turning to B2, in data set [4], the “K DNA (DNA concentration required for 50% stimulation of ATPase)” value is given as 18.5 ± 4.9 μM nt and the “V max of ATP hydrolysis” value amounted to 127 ± 11 µM/min. Further, in data set [6] (previous study), the “reduction in co-purification with SSB” value is 24 fold. Also, the “binding to SSB in co-purification assay, in words” value in data set [6] (prior results) was “severely reduced binding to SSB”. Besides, the “yeast two-hybrid growth on selective medium” value in data set [5] is given as “grew on the selective medium”.

B3: SSB-Ct peptide, unlabeled (peptide)
peptide: WMDFDDDIPF
notes: N-terminal tryptophan residue added for quantification; C-terminal tip of SSB, E. coli; source: synthetic peptide (Genscript)
B3: in data set [7], the Kd was found to be 3.9 ± 0.8 µM, the dH is -4 ± 0.5 kcal/mol and the “stoichiometry N” value is 0.92 ± 0.08.

By stoichiometry N is commonly meant a count of units in the complex or per binding partner.

These data come from publication PMC10164576, “Interaction with the carboxy-terminal tip of SSB is critical for RecG function in E. coli” (Nucleic Acids Research, 2023).
